According to the DeepSol protein solubility set:

Test: soluble on expression in E. coli; label from the status in PepcDB or PDB records

Row | Sequence | soluble on expression in E. coli
1 | MHDASHNSLFKTKWMNDYLVDWLCARPIWNDVHKYRTHHTRHHAKTSTPEDPDLTLVAGFPTTKTSLTRKFLRDLVGITGFKFTVGRILMDAEVLKWTVANDLTWLPRENRQWYDYPKVFLKNSSKAIIANASIFGILWAFGRPELYLLWPLAYLTPFPLFIRIRSMAEHAGTQISNNALTNTRTTKAGWLARAFVAPIRVNYHMEHHLMAAVPFFKLPKMHQMLRERGHVPEPPTYVQVIHMLSSHQTNQHPLNSVEQGELEHHHHHH | soluble
2 | SRGHDATSWINRCLDCFSEGLSFRRQSKRPKMKVHYGDKAKDYDYNARKKQQSEEIDRILDKLKKSGYNSLTTEEKKSLFDASKK | not soluble
3 | MRNIQIALTKGRLEKHVIPLFEQIGIDCSELKNKGRKLVFQSKNTDISFILVKAVDVATYVEHGVADIGVVGKDILMENEKDIYEMLDLGVGVCKFCVASIPTYNPKSYRKKCIATKYPHITSNYFHNKGEDVEIIKIEGSVEIAPILGLADAIVDIVETGKTLQENGLIVFEEMYSISARMIVNKAALKTKKDEIFSIINMMEQEILSGK | not soluble
4 | SVYTYFSAVAGQDGEVDAEELQRCLTQSGINGTYSPFSLETCRIMIAMLDRDHTGKMGFNAFKELWAALNAWKENFMTVDQDGSGTVEHHELRQAIGLMGYRLSPQTLTTIVKRYSKNGRIFFDDYVACCVKLRALTDFFRKRDHLQQGSANFIYDDFLQGTMAI | soluble
5 | SKDQHLRGFFSDSTSFNILMDMLFIKGKYKSALQVLIEMKNQDVKFTKDTYVLAFAICYKLNSPESFKICTTLREEALLKGEILSRRASCFAVALALNQNEMAKAVSIFSQIMNPESIACINLNIIIHIQSNMLENLIKTLKNAAEGNLSKFVKRHVFSEEVLAKVREKVKDVPALVAKFDEIYGTLHITGQVTTDSLDAVLCHTPRDRKSHTLLLNKRMVSRRTFQPLSQSLLAE | soluble
6 | MEPAAGFLSPRPFQRAAAAPAPPAGPGPPPSALRGPELEMLAGLPTSDPGRLITDPRSGRTYLKGRLLGKGGFARCYEATDTETGSAYAVKVIPQSRVAKPHQREKILNEIELHRDLQHRHIVRFSHHFEDADNIYIFLELCSRKSLAHIWKARHTLLEPEVRYYLRQILSGLKYLHQRGILHRDLKLGNFFITENMELKVGDFGLAARLEPPEQRKKTICGTPNYVAPEVLLRQGHGPEADVWSLGCVMYTLLCGSPPFETADLKETYRCIKQVHYTLPASLSLPARQLLAAILRASPRDRPSIDQILRHDFFTKGYTPDRLPISSCVTVPDLTPPNPARSLFAKVTKSLFGRKKKSKNHAQERDEVSGLVSGLMRTSVGHQDARPEAPAASGPAPVSLVETAPEDSSPRGTLASSGDGFEEGLTVATVVESALCALRNCIAFMPPAEQNPAPLAQPEPLVWVSKWVDYSNKFGFGYQLSSRRVAVLFNNGTHMALSANRKTVHYNPTSTKHFSFSVGAVPRALQPQLGILRYFASYMEQHLMKGGDLPSVEEVEVPAPPLLLQWVKTDQALLMLFSDGTVQVNFYGDHTKLILSGWEPLLVTFVARNRSACTYLASHLRQLGCSPDLRQRLRYALRLLRDRSPA | soluble
7 | MGSDKIHHHHHHQVAYFMSFAGNETFIRELVKQFGSDEVLIVYKTNVKENVLQLQQGHIIKHAIEFKKFQVTSFVKGIKLARVTLFDNYYPELSAINKTKKDYFIQMWHANGAIKAFGWEDPSTYHRSVEDQQRFQRVYDSFDQIVVGSEKMADVFQRSWHVASDKIDRIGYPRTDKYFEESWIEKARKKIQTKLPELTQKRVILYAPTYRKDVSFSLPDDWRKIKVPQDAVLIVRLHPHLANVERQIVDASPDRVIMVDHFISTQELLCVADTLITDYSSIAFDFSLLDNARSVIFFTYDLEEFERTVGIQASFKAAFLNQMVNTVEQLNDAILFGNSDKNVIHKLNQQWNTLNDGHSSARLIKQVKERCTDE | not soluble
8 | MGSDKIHHHHHHMTSELETAANPEKLKRIVIEPVTRVEGHGKVTLLLDEDNRVQQARFHIVEFRGFEKFIQGRPYTEVPVLVQRLCGICPVSHNLAASKAMDVIVGAAPPPAADKLRRLMHMGQMLQSHALHFFHLSSPDLLFGFDAEVGKRNIAGLAMQFPDIARQGVGLRKFGQEVIRMTSGKRVHGTGVIPGGMSKNLSREDRDWLLAEIDQVVRWSQQAVNLIKRLYGEHKDFYNNFGYYRSSFMSLVREDGAMDLYHGNLRAIDDKGQTIFDHVDYSHYGDYIHEEVKSWSYMKFPFIRSQGREEGWYRVGPLARVNNCDFIPTPLAEAERKIFKEYDGGRASHATLSFHWARMIEMLHSAEAIRELLHDDDLLSDDLVNIGERQLRGVGVIEAPRGTLIHHYRINEDEQIVRANLIVATTHNNQAMNEAIRQVSLQYLDGQQLTEGLLNYIEVAIRAFDPCLSCATHALGKMPLEVELVDAEGARVKRIIKDSDGGYRA | not soluble
9 | MKLSQQSQAIIESAIQKAINKYTCGCEQTIVTDIHIQPNQNSGELFIYDDEDEELSSVTIDEWTAYEGDDFCEDAERIFRTVLCRMKENGSFDKLTILKPYSFVLVDEDKETISELLLVDDDTLLVNDELLKGLDKELDDFLKDLLEKLEHHHHHH | soluble
10 | MGSDKIHHHHHHMRTSLLYKIKEEERILPSKNLKGNEIIFILAFPDIYKYGLPNLGIQTLYKELYLRDDVAVDRYYTDEDQPFSFEYGFKLKDSDFIGISFQYEGIVLNAFKILKAGSIPLINLLREENDPIIIGGGPVANYNPLPLSLVCDVIVLGEAEEAIHKIIDSYKVYRNVKRKRMKFLQAVSQIEGIYVPCIHGFFQTGMVKQTSPVDINEHPAHSIFVTKNTVYEERVFSIEVRRGCTQRCRFCYMGHRLKPPRTLRWETFKKIVDLAIDQCNVEIIKLFYEGLETRIVEHYLEYIIKKGGRVRIGSQRLEKLSKRIIEIAAISGQRKITVAPETSGRLRKVIGKHEIKDEEILEVVRISSLYGIPDFGLYFILAIPGETFEDLDKIADLIMKVRHQMNKLKNTDGRLEIGINPLYPKPFTPFQYVKLPSLKNIEDRFLYIVEKVKKEGFPVVISNDVVDEKVEKRQKDENENESLVKFETTVFHPISLLQPMISRGGLEIAFLLHYLHSKRFNTVSDLENLLNEFGINAAWYFEEYIDKYCPWKIQKTLISEDYLLKEYFKALNFISTDEECKLNCSQCFNRCIDISTTNYQGGMSNA | not soluble
11 | MGSDKIHHHHHHMTTVLPLDPARYTPHLLHSAERMWPETNCYVDLWIEVLCVLGLPPEAMLGFTLTQDFEGDQFTFFKVPLEDLEALYGIRVTELAIFDRAEAHVAQQISRGRLCLVEMDSYFMPDTAGVGYRQHHGKTTVGVNRLDLAGRSMDYFHNGGFFRLEAEDFDGIWQLAAPETAPFLPYTEFAKFPETRPDETHLRAVAKRLFAFHFARRPQGNPFAGFAEVFPAQVEAIAERPFGYFHTYAFNTLRQFGANFELLASHLKWLAADDRYTNEIAEALRISELAKTVQFQLARAVTRKKFDPLKAALDPAIDAWDRLMTGLADKMA | not soluble
12 | MQKWIGIMGIIFILTGCKMSEAPTNLMEAPANEKWINELKEQIDKDLPVNYRLLTPMSNKDKQMIWSMDFKQDNKKEAVIFYKLPNADHSVYLAVYEKNGNGWKTKSTHKFNGGDVDIVEVGDFTGNGKRELLIGISVDRESLKHVMYVFSEENEDMREIYNRNYTKLFIDDLNKNGLKDLSLVTYEKDEKLIVEFIEQFKTLSEASFDPFINSIQRIQMGRISKSLKAIVIDAGVGAHSGITYVAKFDENHYEVLPIDGKEDLFNEYVVESKDVNEDGIIEFVRTVRPKGWEDKPHGDSPLFERYIQWSESGIKPIEERYIDIEKGYYVKIPKELIGKITISDEQKESNSQKFLETSTNETWLEVHIFKRKEWFGIKGYSAAVKTASHVYAVPKQPHFEKVKAYVKPLADYQQE | not soluble
13 | MGSDKIHHHHHHMTTFHDLPLEERLTLARLGTSHYSRQLSLVDNAEFGEHSLLEGWTRSHLIAHVAYNAIALCNLMHWANTGEETPMYVSPEARNEEIAYGSTLNPDALRNLHEHSVARLDVAWRETSEDAWSHEVLTAQGRTVPASETLWMRSREVWIHAVDLGAVATFGDIPEVILRTLAAEITQKWTSQGAGEGLVLLDEPSSTRYPAAPGQDEVVVSGSLAGIVRYAAGRGSDGVTSSTGEVPEPPRWL | not soluble
14 | MSLQVSLNPEWLARNNDEHKIRRNDHRSPFQRDRARILHSAAFRRLQAKTQVHGTSLNDFHRTRLTHSLEAAQIGTGIVAQIKLKQPEFRELLPSDSLIDSLCLAHDIGHPPYGHGGEIALNYMMRDHGGFEGNAQTFRIVTSLEPYTEHHGMNLSRRTLLGLLKYPALLSATRAAIPPPAVAHQRQLKAKDWSPAKGIYDCDLASLDWVLEPLCESDRELLGQMRAEPSSPKEHRKTRFKSLDCSIMELADDIAYGVHDLEDAIVLGMVTRAQWQEAAAAQLAECGDPWFEEHIAELSEMLFSGKHYVRKDAIGGIVNALLTSISVKPVEAPFHNELLAFNAYIEPHMGNALEVLKHFVSQYVIQIPQVQRFEYKGQQLIMDLFEALSADPERLLPQATGEKWRKAQEQDEGMRVICDYIAAMTDAYAQRLHQQLFSAQSHYEGGSHHHHHH | soluble
15 | MKPLLTAMFGATLATASTLASAEVAVIMNAGASAAPSQAEVANIFLGKDTSLKGLDQKGWNPTKERFYSALTNKNESQLKSYWSGLVFTGKGQPLQSVDDDAAVIAKVGSEANAIGYIDTSAVNDKVKVLFTLP | not soluble
16 | MSLRDKQKIKTKLIPEKDEGEGKYRIGLYIRDSAAGIGTMTFYEPKTKKYGALGHVISDMDTKKPIVVENGEIVKSTVTSIEKGTGGNPGEKLARFSSERKTIGDINRNSPFGIFGTLHQPIQNNISDQALPVAFSTEVKKGPAEILTVIDDDKVEKFDIEIVSTTPQKFPATKGMVLKITDPRLLKETGGIVQGMSGSPIIQNGKVIGAVTHVFVNDPTSGYGVHIEWMLSEAGIDIYGKEKASEGHHHHHH | soluble
17 | MEVKALAHAKNDSVAVATDDLKEGEEIQVAFLDNNEKTKITTAEVIPLGHKISLKDIKKGENVIEYGEVIGAATKDIKRGEHVHIHNIKSLRW | not soluble
18 | MSQTNESFAALFEESIARSNMKAGEVISAEVVRIDHNFVVVNAGLKSEAFVPVEEFLNDQGELEVQVGDYVSVAIDALENGYGDTILSRDKAKRLASWLNLEKALESGEIISGTVTGKVKGGLTVMVNGIRAFLPGSLVDVRPIKDTTPYEGKTLEFKVIKLDRKRNNVVLSRRAVVEATLGEERQKLMETLKEGAIVNGIVKNITDYGAFVDLGGIDGLLHITDLAWRRVRHPSEVLSVGQEITAKILKFDQEKNRVSLGVKQLGEDPWVGISRRYPQGTRLFGKVTNLTDYGAFVEIEAGIEGLVHVSEMDWTNKNVAPSKVVQLGDEVEVMVLDIDEDKRRISLGMKQCKANPWDDFARNHKKGDKLAGQIKSITDFGVFIGLPGGIDGLVHLSDLSWQETGEEAVRKYKKGDEVEAVVLAIDVEKERISLGIKQLSGDPFNNFISANDKGSIVSVTIKTVDPKGAVVQLADDVEGYLRASEISSDRVEDARNVLKEGETMTAMIVNIDRKSRNINVSIKAKDSADQQEAMQKFAQDTGTAGTTNLGALLKAKLNETNQLEHHHHHH | soluble
19 | MNAGKKGVIYTCITGGYDELLNHTFISPEWDYVCFSDDMGINNEKNAQWEIRPLRFEKLDDVRNQRWHKLHPHLLFPESGLSLWVDGNVDILDGEIFHDIDRALNANLLIAPSLHPERNCIYDEFDACRQLGKDDPDVMGRQEYLIKKDGFPKAKGLFETNIIFRCHSHPMVITIMEEWWYWVEQYSRRDQLGFTYVLWKNNYTVEPLSPVSYRFSPGVRFRYGAFHITKEQLIKEKAALEIKVQRFEALICGRLVKVLYKIRKSTVKRWCRVKMQLLNSLCCRKLEHHHHHH | not soluble
